Laboratory results published in publication PMC9349188 (Nature Communications, 2022).

B1: ACS103 Fab (Fab, V domains shown)
VH: QVQLVQSGAEVKRPGASVRVSCEASGYRFTAYHIHWLRQAPGQGLEWMGWVNTLTSGVNYGWKFQGRVKMTRERSIDTDTAYLDLSGLRLDDTAVYYCARGNGKSDDERSTYQYFGPWGQGTLVTVSS
VL: QTVVTQPASVSGSPGQSITISCAGSSSDIGSYDYVSWYQQHPGKAPKVVIYDVTKRPSDISHRFSASKSGNTASLTISGLQPEDEAQYRCCTYAQTVLCGGGTKLTVL
B2: ACS101 Y100fW mutant monoclonal antibody (IgG) (antibody, V domains shown)
VH: EVQLLESGAEVKKPGASVRVSCEASGYTFTKYFIHWVRQAPGHGLEWIGWINTLTSGVNYARNFQGRLTLTRDLSTETVYMDLRNLKSDDTAVYYCARGGRGYDEPWGAWTWLDPWGQGSLVTVSS
VL: SYELTQPASVSGSPGQSITISCTGSSIGSYDLVSWYQQYPGKAPKVIIFEVSKRPSGVSHRFSGSKSGNTAALTISGLQVEDEAIYHCYSYDDMIIFGGGTRLTVL

Assays:
[1] = biological target: T1, AMC009 SOSIP trimer (SOSIP version not stated, negative stain EM) (HIV-1); assay: negative stain electron microscopy; conditions: both partners purified
T1 construct: copies: 3 + 3

[2] = biological target: AMC009 SOSIP trimer (SOSIPv4.2) (HIV-1); assay: cell-based or functional assay

Binder	stoichiometry N [1]	neutralization of the AMC009 virus (TZM-bl cells), IC50 relative to ACS101 [2]
B1	3 Fabs per trimer	–
B2	–	~12 fold
